Test results from article PMC9340783, “Development of a fully human anti‐GITR antibody with potent antitumor activity using H2L2 mice” (FEBS Open Bio, 2022).

Tests used:
[1] = biological target: T1, human GITR on 293F‐hGITR cells (Homo sapiens (Human)., UniProt Q9Y5U5-1); test: cell-based or functional assay
hGITR ECD hFc [2] = biological target: T2, hGITR ECD hFc (Homo sapiens (Human)., UniProt Q9Y5U5, Thr45Ala); test: SPR; Biacore T200; hGITR ECD hFc immobilised on a Series S CM5 chip; antibody 0, 3.125, 6.25, 12.5, 25 and 50 nM; association 180 s, dissociation 600 s; settings: both partners purified
T2 construct: human GITR (glucocorticoid-induced TNF receptor-related), extracellular domain, Gln26-Glu161 with Thr45Ala, UniProt Q9Y5U5.1; also called human GITR protein; source: FreeStyle 293F, transiently transfected, purified by protein A

[3] = biological target: T1, human GITR on 293F‐hGITR cells; test: flow cytometry on cells; 293F‐hGITR or 293F‐cynoGITR cells incubated with antibodies at 4 °C for 1 h, fluorescent anti-rat/human secondary antibody; EC50 of MFI curve; settings: one partner purified
[4] = biological target: T3, cynoGITR on 293F‐cynoGITR cells (Macaca fascicularis); test: as above; settings: one partner purified
T3 construct: also called 293F‐cGITR
T3 chain: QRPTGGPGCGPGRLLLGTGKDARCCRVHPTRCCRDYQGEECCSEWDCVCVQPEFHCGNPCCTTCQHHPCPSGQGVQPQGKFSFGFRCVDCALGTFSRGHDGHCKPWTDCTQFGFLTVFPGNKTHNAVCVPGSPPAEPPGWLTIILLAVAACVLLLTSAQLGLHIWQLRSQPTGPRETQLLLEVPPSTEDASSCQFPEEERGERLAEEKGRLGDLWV

human OX40 ECD hFc = biological target: T4, human OX40 ECD hFc (Homo sapiens (Human)., UniProt P43489); test: ELISA; indirect ELISA; antigen hFc fusion protein coated on 96-well plates (1 μg·mL^−1 overnight at 4 °C in Fig. 3B), antibody added, detected with anti-rat IgG/hIgG-peroxidase antibody; settings: both partners purified
T4 construct: human OX40, extracellular domain
T4 sequence (P43489 29-214): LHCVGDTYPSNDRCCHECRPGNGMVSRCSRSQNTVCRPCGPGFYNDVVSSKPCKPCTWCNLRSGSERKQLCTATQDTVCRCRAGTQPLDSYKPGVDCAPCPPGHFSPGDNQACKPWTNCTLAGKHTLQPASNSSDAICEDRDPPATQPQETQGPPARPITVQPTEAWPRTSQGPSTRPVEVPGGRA

4‐1BB ECD hFc = biological target: T5, 4‐1BB ECD hFc (Homo sapiens (Human)., UniProt Q07011); test: as above; settings: both partners purified
T5 construct: 4-1BB, extracellular domain; called a paralogue of human GITR; The legend's word 'human' stands before OX40 only; human is likely
T5 sequence (Q07011 24-186): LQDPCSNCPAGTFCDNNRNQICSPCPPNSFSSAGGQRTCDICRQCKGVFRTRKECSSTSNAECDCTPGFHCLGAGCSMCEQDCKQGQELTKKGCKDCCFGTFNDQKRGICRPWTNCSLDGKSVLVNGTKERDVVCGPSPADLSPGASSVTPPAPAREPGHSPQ

hGITR ECD hFc [5] = biological target: T2, hGITR ECD hFc; test: as above; settings: both partners purified
cynoGITR ECD hFc [6] = biological target: T6, cynoGITR ECD hFc (Macaca fascicularis); test: as above; settings: both partners purified
T6 construct: cynomolgus GITR, extracellular domain, Gln20-Glu155, NCBI XP_005545180.1; also called cynoGITR protein; cGITR; source: FreeStyle 293F, transiently transfected, purified by protein A
T6 chain: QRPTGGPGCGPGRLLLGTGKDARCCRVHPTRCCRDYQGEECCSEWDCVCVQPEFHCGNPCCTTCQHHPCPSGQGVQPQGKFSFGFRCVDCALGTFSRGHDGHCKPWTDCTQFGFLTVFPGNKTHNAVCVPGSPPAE

hGITR ECD hFc [7] = biological target: T2, hGITR ECD hFc; test: as above; settings: both partners purified; remark: listed apart in the source
cynoGITR ECD hFc [8] = biological target: T6, cynoGITR ECD hFc; test: as above; settings: both partners purified

T1 sequence (Q9Y5U5 26-241): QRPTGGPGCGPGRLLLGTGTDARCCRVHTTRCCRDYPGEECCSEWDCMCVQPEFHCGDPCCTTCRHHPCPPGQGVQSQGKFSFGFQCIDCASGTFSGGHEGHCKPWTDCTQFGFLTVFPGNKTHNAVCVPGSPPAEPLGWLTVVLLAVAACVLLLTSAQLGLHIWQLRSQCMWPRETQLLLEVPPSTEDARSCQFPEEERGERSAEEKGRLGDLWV

Binder | NF‐ĸB luciferase reporter assay, Crosslinking, EC50 [1] | NF‐ĸB luciferase reporter assay, Crosslinking, Top ratio [1] | NF‐ĸB luciferase reporter assay, No crosslinking, EC50 [1] | NF‐ĸB luciferase reporter assay, No crosslinking, Top ratio [1] | Kd (hGITR ECD hFc [2]) | EC50 [3] | EC50 [4] | binding result (human OX40 ECD hFc) | binding result (4‐1BB ECD hFc) | EC50 (hGITR ECD hFc [5]) | EC50 (cynoGITR ECD hFc [6]) | EC50 (hGITR ECD hFc [7]) | EC50 (cynoGITR ECD hFc [8])
hab019e2 (antibody, V domains shown, 3503‐hab019‐VH(EG + NLA); positions not given; as the VL of m12 (3503‐hab019‐Vk); Whole antibody, human IgG1 heavy chain constant region, human kappa light chain constant region; also called hab19e2; source: FreeStyle 293F, transiently co-transfected, purified from culture supernatant) VH: QVQLVESGGGVVQPGRSLRLSCAASGFTFSSYGMHWVRQAPGKGLEWVAVIWYAGSRKFYADSVEGRFTISRDNSKNTLYLQMNSLRAEDTAVYYCARGGSLEGGFFYYGMDVWGQGTTVTVSS VL: not shown | 7.69 nM | 13 fold | 0.275 nM | 8 fold | 0.384 nM | 0.206 nM | 0.29 nM | no binding | no binding | 0.093 nM | 0.089 nM |  | 
hab070e1 (antibody, V domains shown, as the VH of m14 (3503‐hab070‐VH); 3503‐hab070‐Vk(C2Y); the substitution is against the VL of m14 (Cys in FR3 of VL); position not given; Whole antibody, human IgG1 heavy chain constant region, human kappa light chain constant region; also called hab70e1; source: FreeStyle 293F, transiently co-transfected, purified from culture supernatant) VH: QVQLVESGGGVVQPGRSLRLSCAASGFTFSSYGMHWVRQAPGKGLEWVAVIWYETSNKFYVDSVKGRFTISRDNSKNTLYLQMNSLRAEDTAVYYCARYGASSGWYWYFDLWGRGTLVTVSS VL: DIQLTQSPSFLSASVGDRVTITCRASQGISSFLAWYQQKPGKAPKLLIYAASTLQSGVPSRFSGSGSGTEFTLTISSLQPEDFATYYCQQLNSYPFTFGQGTKLEIK | 6.78 nM | 12 fold | 0.262 nM | 7 fold | 0.537 nM | 0.164 nM | 0.268 nM | no binding | no binding | 0.101 nM | 0.111 nM |  | 
Tab9H6v3 (antibody, V domains shown, heavy chain variable region of clone 9H6v3 (AMGEN INC.); light chain variable region of clone 9H6v3 (AMGEN INC.)) VH: QVQLVESGGGVVQPGRSLRLSCVASGFTFSSYGMHWIRQAPGKGLEWVAVIWYEGSNKYYAESVKGRFTISRDNSKNTLYLQMNSLRAEDTAVYYCARGGRLGKDYYSGMDVWGQGTTVTVSS VL: DIQMTQSPSSLSASVGDRVTITCRASQGIRNDLGWYQQKPGKAPKRLIYATSSLQSGVPSRFSGSGSGTEFTLTISSLQPEDFATYYCLQHNTYPWTFGQGTKVEIK | 8.86 nM | 14 fold | 0.787 nM | 11 fold | 0.135 nM | 0.184 nM | 0.235 nM |  |  | 0.088 nM | 0.09 nM | 0.0709 nM | 0.0637 nM
